Assay results from patent publication US20240002501A1.

Tests used:
[1] = target: L1-CAM on L1-CAM(+) human tumor cells (human) (UniProt P32004); assay: flow cytometry, M14 melanoma cells (control)
[2] = target: L1-CAM on L1-CAM(+) human tumor cells (human) (UniProt P32004); assay: flow cytometry, SKERT EWS cells (control)
[3] = target: L1-CAM on L1-CAM(+) human tumor cells (human) (UniProt P32004); assay: flow cytometry, SKEPR EWS cells (control)
[4] = target: L1-CAM on L1-CAM(+) human tumor cells (human) (UniProt P32004); assay: flow cytometry, SKNMC EWS cells (control)
[5] = target: L1-CAM on L1-CAM(+) human tumor cells (human) (UniProt P32004); assay: flow cytometry, HTB24 breast CA cells (control)
[6] = target: L1-CAM on L1-CAM(+) human tumor cells (human) (UniProt P32004); assay: flow cytometry, MCF7 breast CA cells (control)
[7] = target: L1-CAM on L1-CAM(+) human tumor cells (human) (UniProt P32004); assay: flow cytometry, LAN-1 NB cells (control)
[8] = target: L1-CAM on L1-CAM(+) human tumor cells (human) (UniProt P32004); assay: flow cytometry, SKNCM NB cells (control)
[9] = target: L1-CAM on L1-CAM(+) human tumor cells (human) (UniProt P32004); assay: flow cytometry, HCC1954 breast CA cells (control)
[10] = target: L1-CAM on L1-CAM(+) human tumor cells (human) (UniProt P32004); assay: flow cytometry, SKEAW EWS cells (control)
[11] = target: L1-CAM on L1-CAM(+) human tumor cells (human) (UniProt P32004); assay: flow cytometry, CHP-100 EWS cells (control)
[12] = target: L1-CAM on L1-CAM(+) human tumor cells (human) (UniProt P32004); assay: flow cytometry, ACC 104 M-07e AML cells (control)
[13] = target: L1-CAM on L1-CAM(+) human tumor cells (human) (UniProt P32004); assay: flow cytometry, A4573 EWS cells (control)
[14] = target: L1-CAM on L1-CAM(+) human tumor cells (human) (UniProt P32004); assay: flow cytometry, 5838 EWS cells (control)
[15] = target: L1-CAM on L1-CAM(+) human tumor cells (human) (UniProt P32004); assay: flow cytometry, RH30 rhabdomyosarcoma cells (control)
[16] = target: L1-CAM on L1-CAM(+) human tumor cells (human) (UniProt P32004); assay: flow cytometry, U2OS osteosarcoma cells (control)
[17] = target: L1-CAM on L1-CAM(+) human tumor cells (human) (UniProt P32004); assay: flow cytometry, CRL1427 osteosarcoma cells (control)
[18] = target: L1-CAM on L1-CAM(+) human tumor cells (human) (UniProt P32004); assay: flow cytometry, SKES-1 EWS cells (control)
[19] = target: L1-CAM on L1-CAM(+) human tumor cells (human) (UniProt P32004); assay: flow cytometry, THP-1 AML cells (control)
[20] = target: L1-CAM on L1-CAM(+) human tumor cells (human) (UniProt P32004); assay: flow cytometry, SKNMM LUC NB cells (control)
[21] = target: L1-CAM on L1-CAM(+) human tumor cells (human) (UniProt P32004); assay: flow cytometry, SW480 CRC cells (control)
[22] = target: L1-CAM on L1-CAM(+) human tumor cells (human) (UniProt P32004); assay: flow cytometry, SKELP EWS cells (control)
[23] = target: L1-CAM on L1-CAM(+) human tumor cells (human) (UniProt P32004); assay: flow cytometry, RH48 rhabdomyosarcoma cells (control)
[24] = target: L1-CAM on L1-CAM(+) human tumor cells (human) (UniProt P32004); assay: flow cytometry, SKEFM EWS cells (control)
[25] = target: L1-CAM on L1-CAM(+) human tumor cells (human) (UniProt P32004); assay: flow cytometry, RH41 rhabdomyosarcoma cells (control)
[26] = target: L1-CAM on L1-CAM(+) human tumor cells (human) (UniProt P32004); assay: flow cytometry, RH36 rhabdomyosarcoma cells (control)
[27] = target: L1-CAM on L1-CAM(+) human tumor cells (human) (UniProt P32004); assay: flow cytometry, NCI-H69 SCLC cells (control)
[28] = target: L1-CAM on L1-CAM(+) human tumor cells (human) (UniProt P32004); assay: flow cytometry, 8402 ALL cells (control)
[29] = target: L1-CAM on L1-CAM(+) human tumor cells (human) (UniProt P32004); assay: flow cytometry, RG143B osteosarcoma cells (control)
[30] = target: L1-CAM on L1-CAM(+) human tumor cells (human) (UniProt P32004); assay: flow cytometry, HTB82 rhabdomyosarcoma cells (control)
[31] = target: L1-CAM on L1-CAM(+) human tumor cells (human) (UniProt P32004); assay: flow cytometry, TC71 EWS cells (control)
[32] = target: L1-CAM on L1-CAM(+) human tumor cells (human) (UniProt P32004); assay: flow cytometry, HTB25 breast CA cells (control)
[33] = target: L1-CAM on L1-CAM(+) human tumor cells (human) (UniProt P32004); assay: flow cytometry, NCI-H82 SCLC cells (control)
[34] = target: L1-CAM on L1-CAM(+) human tumor cells (human) (UniProt P32004); assay: flow cytometry, TC32 EWS cells (control)
[35] = target: L1-CAM on L1-CAM(+) human tumor cells (human) (UniProt P32004); assay: flow cytometry, HTB67 melanoma cells (control)
[36] = target: L1-CAM on L1-CAM(+) human tumor cells (human) (UniProt P32004); assay: flow cytometry, SKMEL28 melanoma cells (control)
[37] = target: L1-CAM on L1-CAM(+) human tumor cells (human) (UniProt P32004); assay: flow cytometry, RH28 rhabdomyosarcoma cells (control)
[38] = target: L1-CAM on L1-CAM(+) human tumor cells (human) (UniProt P32004); assay: flow cytometry, NCI-H345 SCLC cells (control)
[39] = target: L1-CAM on L1-CAM(+) human tumor cells (human) (UniProt P32004); assay: flow cytometry, NCI-H524 SCLC cells (control)
[40] = target: L1-CAM on L1-CAM(+) human tumor cells (human) (UniProt P32004); assay: flow cytometry, UM SCC 22B HNSCC cells (control)
[41] = target: L1-CAM on L1-CAM(+) human tumor cells (human) (UniProt P32004); assay: flow cytometry, AU565 breast CA cells (control)
[42] = target: L1-CAM on L1-CAM(+) human tumor cells (human) (UniProt P32004); assay: flow cytometry, HTB-41 A253 submaxillary salivary gland cells (control)
[43] = target: L1-CAM on L1-CAM(+) human tumor cells (human) (UniProt P32004); assay: flow cytometry, IMR32 LUC NB cells (control)
[44] = target: L1-CAM on L1-CAM(+) human tumor cells (human) (UniProt P32004); assay: flow cytometry, HPB-T ALL cells (control)
[45] = target: L1-CAM on L1-CAM(+) human tumor cells (human) (UniProt P32004); assay: flow cytometry, JMN mesothelioma cells (control)
[46] = target: L1-CAM on L1-CAM(+) human tumor cells (human) (UniProt P32004); assay: flow cytometry, NCI-H2052 mesothelioma cells (control)
[47] = target: L1-CAM on L1-CAM(+) human tumor cells (human) (UniProt P32004); assay: flow cytometry, MESO 9 mesothelioma cells (control)
[48] = target: L1-CAM on L1-CAM(+) human tumor cells (human) (UniProt P32004); assay: flow cytometry, MESO 11 mesothelioma cells (control)
[49] = target: L1-CAM on L1-CAM(+) human tumor cells (human) (UniProt P32004); assay: flow cytometry, MESO 34 mesothelioma cells (control)
[50] = target: L1-CAM on L1-CAM(+) human tumor cells (human) (UniProt P32004); assay: flow cytometry, VAMT mesothelioma cells (control)
[51] = target: L1-CAM on L1-CAM(+) human tumor cells (human) (UniProt P32004); assay: flow cytometry, MESO 10 mesothelioma cells (control)
[52] = target: L1-CAM on L1-CAM(+) human tumor cells (human) (UniProt P32004); assay: flow cytometry, MSTO-21H mesothelioma cells (control)
[53] = target: L1-CAM on L1-CAM(+) human tumor cells (human) (UniProt P32004); assay: flow cytometry, MESO 47 mesothelioma cells (control)
[54] = target: L1-CAM on L1-CAM(+) human tumor cells (human) (UniProt P32004); assay: flow cytometry, MSTO mesothelioma cells (control)

Chain of L1-CAM on L1-CAM(+) human tumor cells (human) (P32004 20-1257 limits assumed): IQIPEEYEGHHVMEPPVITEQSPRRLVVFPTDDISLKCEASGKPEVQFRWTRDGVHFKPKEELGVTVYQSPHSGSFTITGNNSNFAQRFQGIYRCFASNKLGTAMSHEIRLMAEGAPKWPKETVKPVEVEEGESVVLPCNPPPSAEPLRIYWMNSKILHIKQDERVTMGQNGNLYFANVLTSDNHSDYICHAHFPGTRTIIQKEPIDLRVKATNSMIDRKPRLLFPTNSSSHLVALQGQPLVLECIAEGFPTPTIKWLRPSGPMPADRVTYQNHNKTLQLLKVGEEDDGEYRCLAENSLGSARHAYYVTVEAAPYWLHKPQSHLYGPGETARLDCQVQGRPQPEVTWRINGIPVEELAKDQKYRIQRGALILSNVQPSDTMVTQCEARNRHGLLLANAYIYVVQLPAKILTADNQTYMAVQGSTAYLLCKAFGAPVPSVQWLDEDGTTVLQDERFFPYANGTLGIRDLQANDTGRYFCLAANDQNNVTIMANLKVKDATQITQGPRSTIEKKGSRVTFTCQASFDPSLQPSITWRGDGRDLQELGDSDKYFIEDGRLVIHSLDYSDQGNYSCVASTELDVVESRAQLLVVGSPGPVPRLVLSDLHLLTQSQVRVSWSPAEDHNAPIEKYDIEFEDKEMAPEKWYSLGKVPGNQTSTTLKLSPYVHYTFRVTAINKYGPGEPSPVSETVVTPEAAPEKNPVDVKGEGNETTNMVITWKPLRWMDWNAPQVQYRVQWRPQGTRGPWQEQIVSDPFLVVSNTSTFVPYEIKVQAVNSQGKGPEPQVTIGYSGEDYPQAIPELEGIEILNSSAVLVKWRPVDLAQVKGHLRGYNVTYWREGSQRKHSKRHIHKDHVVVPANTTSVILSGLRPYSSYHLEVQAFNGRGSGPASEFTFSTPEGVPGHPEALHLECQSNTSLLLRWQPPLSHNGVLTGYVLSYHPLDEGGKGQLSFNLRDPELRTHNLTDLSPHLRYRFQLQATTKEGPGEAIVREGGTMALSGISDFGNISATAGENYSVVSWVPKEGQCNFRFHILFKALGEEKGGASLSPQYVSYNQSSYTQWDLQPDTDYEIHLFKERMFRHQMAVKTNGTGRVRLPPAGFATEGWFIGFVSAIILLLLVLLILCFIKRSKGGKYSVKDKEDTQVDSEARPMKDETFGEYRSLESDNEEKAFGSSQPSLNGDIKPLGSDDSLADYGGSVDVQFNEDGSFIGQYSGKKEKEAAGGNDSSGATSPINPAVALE

Rituxan (antibody) showed an MFI [1] of 5, an MFI [2] of 5 and an MFI [3] of 3. It also gave an MFI [4] of 5, an MFI [5] of 6 and an MFI [6] of 5. The MFI [7] was 6, the MFI [8] was 5 and the MFI [9] was 5. It also gave an MFI [10] of 5, an MFI [11] of 5 and an MFI [12] of 5. The MFI [13] was 5, the MFI [14] was 5 and the MFI [15] was 5. The MFI [16] was 5, the MFI [17] was 5 and the MFI [18] was 5. The MFI [19] was 5, the MFI [20] was 4 and the MFI [21] was 5. The MFI [22] was 5, the MFI [23] was 5 and the MFI [24] was 5. For the same substance, the MFI [25] was 5, the MFI [26] was 5 and the MFI [27] was 4. It also gave an MFI [28] of 4, an MFI [29] of 5 and an MFI [30] of 5. It also gave an MFI [31] of 5, an MFI [32] of 5 and an MFI [33] of 5. The MFI [34] was 5, the MFI [35] was 5 and the MFI [36] was 5. The MFI [37] was 5, the MFI [38] was 3 and the MFI [39] was 3. The MFI [40] was 5, the MFI [41] was 5 and the MFI [42] was 5. The MFI [43] was 4 and the MFI [44] was 5.

In the case of MOPC 21 (antibody), the MFI [45] is reported as 5, the MFI [46] is reported as 5 and the MFI [47] is reported as 5. For the same substance, the MFI [48] was 5, the MFI [49] was 5 and the MFI [50] was 5. It also gave an MFI [51] of 5, an MFI [52] of 5 and an MFI [53] of 5. It also gave an MFI [54] of 5.
